Here are results for 6 molecules from patent publication US5686073.

Test [1] addresses dystrophin (rabbit). The test can be described thus: co-immunoprecipitation with dystrophin on XIXC2-Sepharose from untreated complex.
The target in test [2] is 50 kDa dystrophin-associated glycoprotein (rabbit). The test is described as follows: co-immunoprecipitation with the 50 kDa glycoprotein on IVD31-Sepharose from untreated complex.
The target in test [3] is dystrophin (rabbit). The test can be described thus: co-immunoprecipitation with dystrophin on XIXC2-Sepharose from alkaline-treated complex.
Test [4] deals with 50 kDa dystrophin-associated glycoprotein (rabbit). The test can be described thus: co-immunoprecipitation with the 50 kDa glycoprotein on IVD31-Sepharose from alkaline-treated complex.

In the case of “156 kDa dystrophin-associated glycoprotein (from UniProt Q28685)”, the percent immunoprecipitated stood at 63% in test [1] and 85% in test [2].
For the molecule 59 kDa dystrophin-associated protein, the percent immunoprecipitated was 96% in test [1], 51% in test [3] and 96% in test [2].
“43 kDa dystrophin-associated glycoprotein (from UniProt Q28685)”: the percent immunoprecipitated in test [1], in test [2] and in test [4] was 96% in each case.
In test [2], dystrophin displayed a percent immunoprecipitated of 99%.
For the molecule “35 kDa dystrophin-associated glycoprotein”, the percent immunoprecipitated in test [1], in test [2] and in test [4] was 96% each time.

B1: 50 kDa dystrophin-associated glycoprotein (protein)
chain: GPGGTEAQQTTLYPLVGRVFVHTLEPASFLHLPEHAAPATIPVTYHAHLQGHPDLPRWLRYTQRSPHHPGFLYGAATPEDRGRQVIEVTAYNRDSFDTAGQSLVLLIRDPEGSPLPYQTEFLVRSHDVEEVLPPTPASHFLTALAGLWEPGELKLLNITSALDRGGRVPLPIGGQKEGVYIKVGSASPFSTCLKMVASPDSHARCARGQPPLLSCYDTLAPHFRVDWCNVSLVDTSVPEPVDEVPTPGDGILEHDPFFCPPTEATARDFLADALVTLLVPLLVALLLALLLAYIMCCRREGRLKRDLATSDIQMVHHCTIHENTEELRQMAASREVPRPLFPLPMFNVRTGERMPPRVDSAQVPLILDQH
Take B1: the percent immunoprecipitated in test [1] amounted to 96%.
